Laboratory results taken from the nanobody polyreactivity screen of Harvey et al. (2022).

Assay: yeast display, Sf9 membrane polyspecificity reagent, FACS + sequencing; frameworks hold sequencing errors
Outline: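 Synthetic nanobody libraries on Saccharomyces cerevisiae BJ5465 were galactose-induced for 36–48 hours, stained 1 hour at 4 °C with 10% biotinylated, detergent-solubilized Sf9 membrane reagent and enriched on streptavidin microbeads. FACS then separated cells into low and high (top ~1%) gates by anti-HA (expression) and streptavidin (reagent binding) fluorescence. Genes were colony-PCR amplified, MiSeq 2 × 250 sequenced and CDR-length filtered. A clone's polyreactivity label is that of its gate of origin.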

Sequence	polyreactivity (PSR sort gate)
QVQLVESGGGLVQAGGSLRLSCAASGRIFGYYALGLSRQAPGKERELVAAINSGSRTYYADSVKGRFTISRDNAKNTVYLQMNSLKPEDTAVYYCAKVGRGNNYWGQGTQVTVSS	high polyreactivity
QVQLVESRGGLVQAGGSLRLSCAATGSIFFSNTMGWYRQAPGTEREMVAAITSTGTTNYADSVKGRFTISRDNAKKTVYLQMNSLKPEDTAVFYCAVRARRWRYNYWGQGTQVTVSS	high polyreactivity
QVQLLESGGGLVQAGGSLRLSCAASGLTIWRYAMGWYRQAPGKEREFVATISHNGGRTYYADSVKGRFTISRDNAKNSVYLQMNSLKPEDTAVYYCAADDWRWGYDYWGQGTQVTVSS	high polyreactivity
QVQLVESGGGLVQAGGSLRLSCAASGSIFGWYAMGWYRQAPGKEREFVAAISGGSTYYADSVKGRFTISRDNAKNTVYLQMNSLKPEDTAVYYCNAQGYYFYPFDYWGQGTQVTVSS	high polyreactivity
QVQLVESGGGLVQAGGSLRLSCAASGSIFWVYAMGWYRPAPGKERELVAGISSGGSTNYADSVKGRCTISRDTAKKTVYLQMNSLKPEDTAVYYCAAVIRTVRERYGYWGQGTQVTVSS	high polyreactivity
QVQLVESAGGLVQAGGSLRLSCAASGRTLYRYAMGWYSQAPGKERELVAAIRWSGGSTYYADSVKGRFTISRDNAKNTVYLQMNSLKPEDTAVYYCNAGRSWRRTHYDYWGQGTQVTVSS	high polyreactivity
QVHLVESGGGLVQAGGILRLSCAASGFIYTKYTMGSYRQAPGKEREMVAAITGRGTSTYADSVKGRFTISRDNAKNSVYLQMNRLKPEDTAVYYCASVGWFADFMFSDINGYYWGQGTEVTVSS	low polyreactivity
QVQLVESGGGLVQAGGSLRLSCAASGIFSIYAMGRYRQAPGKERELVAAITSGGGRTYYADSVKGRFTISRDNAKNTVYLQMNSLKPEDTAVYYCARVQRGDYDYWGQGTQVTVTS	high polyreactivity
QVQLVESGGGLVQAGGSRRLSCAASGSTFRGNAMGWYRQAPGKERELVAAITWSGDDTYYADSVKGRFTISRDNAKNTVYLQMNSLKPEDTAVYYCAADLAAFTLAVAYTYDYWGQGTQVTVSS	low polyreactivity
QVKLVESGGGLVQAGGSLRLSCAASGRTFYIYAMGWYRQAPGKERELVAAITYGGGRTFYADSVKGRFTISRDNAKNTVYLQMNSRKPEDTAVYYCAATVRGKRSTYDYWGQGTQVTVSS	high polyreactivity
QVQLVESGGGLVQAGGSLRLSCAASGRIFSVYAMGWYRQAPGKERELVAAITRVGSTNYADSVKGRFTISRDNAKNTVFLLMNSLKQEDTAVYYCARTYSTRGYYYWGQGTQVTVSS	high polyreactivity
QVQLVESGGGLVQAGGSLRLSCAASGRIFKYYTMGWSRQAPGKERELVAAISRDDSTNYADSVKGRFTISRDNAKNTVYLQMNSLKPEDTAVYYCAKGYHQYAGFYYWGQGTQVTVSS	high polyreactivity
QVQLVESGGGLVQAGGSLRLSCAASGSIFPENAMGWYRQAPGKERELVAAITSSDSSTYYADSVKGRFTISRDNAKNTVYLQMNSLKPEDTAVYYCAAYRVGFRFREYYWGQGTQVTVSS	low polyreactivity
QVQLVESGGGLVQAGGSLRLSCAASGGTFAGYAMGWYRQAPGKERELVAAIRWSGGRTYYADSVKGRFTISRDNAKNSVYLQMNSLKPEDTAVYYCAANGHGRVYFEMDYWGQGTQVTVSS	high polyreactivity
QLQLVETGGGLVQAGGSLRLSCAATGSTFQGYPMGWYRQAPGKDRELVAAISWNGGSTYYADSVKGRFTISRDNAKNTVYLQMNSLKPEDTAVYYCAAYSFAYSYNYWGQGTQVTVSS	high polyreactivity
QVQLVESGGGLVQAGGSLRLSCAASGFTVTWYAMAWYRQAPGKERELVASISRSGGSTYYADSVKGRFTISRDNAKNTVSLQMISLKPEDSAVYYCAAVSRTRSYDYWRQGTQVTVSS	high polyreactivity
QVQLVESGGGLVQAGGSLRLSCAASGSTFNANAMGWYRQAPGKERELVAAITAIGGSTYYADSVTGRFTISRDNAKNTVYLQMNSLKPEDTAVYYCAADFSYVYYLYDYWGQGTQVTVSS	low polyreactivity
QVQLVESGGGLVQAGGSLRFSCAASGFIFSNYAMGWYRQAPGKERELVAAITSGGSTNYADSVKGRFTISRDNAKNTVYLQMNSLKPEDTAVYYCAAERGDTAYRKYDYWGQGTQVTVSS	low polyreactivity
QVQLVESGGGLVQAGGSLRLSCAASGSIFDGNAMGWYRQAPGKERELVAAITNSGGSTYYADSVKGRFTISRDNAKNTVYLQMNSLKPEDTAVYYCNALPFAWRRYRWVRTMYYWGQGTQVTVSS	low polyreactivity
QVQLVESGGGLVQAGGSLRLSCASSGNTFIENAMGWYRQAPGKERELVAAIDTGGSTYYADSVKGRFTISRDNAKNTVYLQMNSLKPEDSAVYYCTAVGLYLYRYIFGYLGKIGPGYDYWGQGTQVSVSS	low polyreactivity
QVQLVESGGGLVKAGGSLRLSCASSGYIFPFNAMGWYRQAPGKERELVAAITNGGRTYYADSVKGRFTISRDNAKNTVYLQMNSLKPDDTSVYYCAAGSKSDMDWGQGTQVTVSS	low polyreactivity
QVQLVESGGGLVQAGGSLRLSCAASGSTFGDNTMGWYRQAPGKERELVASISKSGGSTYYADSVKGRFTISRDNAKNTVYLQMNSLKPEDTAVYYCNRVTHYIRFDYWGQGTQVTVSS	low polyreactivity

Sequence	polyreactivity (PSR sort gate)
QVQLVESGGGLVQAGGSLRLSSAASGSTFEIYAMGWYRQAPGKERDLVAGITTSDGRTDYADSVKGRFTISRDNAKNTVYLLMNILKPEDTAVYYCAKVTLGYTWYQYDYWGQGTQVTVSS	low polyreactivity
QVQLVESGGGLVQAGGSLRLSCAASGIIFRSYTMGWYRQAPGKERELVASITRSGGITYYADSVKGRFTISRDNAKNTVYLQMNSLKPEDTAVYYCSARHRYYSYSGYDYWGQGTQVTVSS	high polyreactivity
QVQLVESGGGLVQAGGSLRLSCAASGRILGKYAMGWYRQAAGKERELVAAIRLRGGSTYYADSVKGRFTISRDNAKNTVYLQMNSLKPEDTAVYYCAARYWDRSQAYNYWGQGTQVTVSS	high polyreactivity
QVQLVESGGGLVQAGGSLRLSCAASGSIFRWNAMGWYRQAPGKEREFVAAISGRGGSTYYADSVKGRFTISRDNAKNTVYLQMNSLKPEDTAVYYCAADQAHLATRGFDYWGQGTQVTVSS	high polyreactivity
QVQLVESGGGLVQAGGSLRLSCAASGSTFQTYAMGWYRQAPGKERELVAAITSGGSTNYADSVKGRFTISRDNAKNTVYLQMNSLKPEDTAVYYCAVRQIYQTSDHRLQYDYWGQGTQVTVSS	low polyreactivity
QVQLVESGGGLVQAGGSLRLSCAASGSIFPVYTMGWYRQAPWKERELVAAITKTGGSTYYADSVKGRFTISRDNAKNTVYLQMNILIPEDTAVYYCAKPATYYELDYWGQGTQVNVSS	low polyreactivity
QVQLVESGGGLVQAGGSLRLSCAASGLTLQRYTMGWYRQAPGKERELVAAISRSGGGTYYADSVKGRFTISRDNAKNTVYLQMNSLKPEDTAVYYCNKVRGAVPWFDMDYWGQGTQVTVSS	high polyreactivity
QVQLVESGGGLVQAGGSLRLSCAASGRTSGNYAMGWYRPAPGKERELVAAMRYSGSSTFYADSVKGRFTISRDNAKNTVYLQMNSLKPEDTAVYYCARDIRRKGFRYDYWGQGTQVTVSS	high polyreactivity
QVQLVESGGGLVQAGGSLRLSCAASGSIYYNAMGWYRQAPGKERELVASISTGDSTDYADSVKGRFTISRDNAKNTFYLQMNSLKPEDTAVYYCAADTRLGYWDDYWGQGTQVTVSS	low polyreactivity
QVQLVESGGGLVQAGGSLRLSCAASGRIFHYYAMGWYRQAPGKEWELVAAISTSGGSTYYADSVKGRFTISRDNANNTVYIQMNSLKPEDTAVYYCAAVLPRYRRFDYWGQGTQVTVSS	high polyreactivity
QVQLVESGGGLVQAGGSLRLSCAASGRIIWSYAMGWYRQAPGKERELVAAIRSGGTTDYADSVKGRFTISRDNAKNTVYLQMNSLKPEDTAVYYCAADPYSVYGGDYWGQGTQVTVSS	low polyreactivity
QVQLVESGGGLVQAGGRLRLSCAASGFIFKGYAKGWYRQAPGKERELVAAISYSGGNTYYADSVKGRFTISRDNAKNTVYLQMNSLKPEDTAVYYCDVRKRKVLGMYYWGQGTQVTVSS	high polyreactivity
QVQLLESGGGLVQAGGSLRLSCAASGRTCRWYAMGWYTQAPWKERELVAAISSSTASTYYADSVKGRFTISRDYAKITVYLQMNSLKPEDSAVYYCAKYYYRFPVCYDYWGLGTQVTVSS	high polyreactivity
QVQLVESGGGLVQAGGSLRLSCAASGSIFVIYTMGWYRQAPGKERELVAVITWSTGNTYYADSVKGRFTISRDNAKNTVYLQMNSLKPEDTAVYYCAARTTSRWRSCAYYYWGQGTQVTVSS	high polyreactivity
QVQLVESGGGLDQAGGSLRLSSAASGSIFRGNAMGWYRQAPGKERELVAGINRAGSTKYADSVKGRFTISRDNAKNTVYLQMNSLIPEDTAVYYCAAVRYERGLWSDYWGQGTQVTVSS	high polyreactivity
QVQLVESRGCLVQAGGSLRLSCAASGSIFVNNAMGWYRPAPGYERELCAAITSGTRTNYADSVKGRFTISRDNAKNTVYLQMNSLKPEDTAVYYCATESAQYSWYYPGHPGYGYWGQGSQVTVSS	low polyreactivity
QVQLVESGGGLVQAGGSLRLSCAASGNTFTYYAMGWYRQAPGKERELVAAISSGGRTYYADSVKGRFTISRDNAKNTVYLQMNSLKPEDTAVYYCAARIKYGYPGPRYYYWGQGTQVTVSS	high polyreactivity
QVQLVESGGGLVQAGGSLRLSCAASGSIFLGNSMGWYRQAPGKERELVAAISSITGRTYYADSVKGRFTISRDNAKNTVYLQMNSLKPEDTAVYYCNKVKRSFIVNTDDYWGQGTQVTVSS	high polyreactivity
QVHLVESGGGLVQAGGSLRLSCDATGFTFQEYAMGWYRQAPGKERELVAAISTSGDSTYYADSVKGRFTISRDNAKNTVYLQMKSLKPEDNAVYYCATAYEDLDAGVLYDYWGQGTQVTVSS	low polyreactivity
QVQLVESGGGLVQAGGSLRLSCAASGRIFYYYAMGWYREAPGKEREFVARNRSSGGSTYADSVKGRFTISRDNAKNTVYLQMNSLKPEDTAVYYCARDGYTAVEYDYWGQGTQVTVSS	low polyreactivity
QVQLVGSGGGLVQAGGSLRLSCAASGRIFDKNAMGWYRQAPGKERELVAAISGGGRTYYADSVKGRFTISRDNAKNTVYLQMNSLKQEDTAVYYCNVPYYYTGGSYGYWGQGTQVTVSS	low polyreactivity
